Experimental data taken from PMC4075432.

Legend:
[1] = target: BCL2 (human (endogenous in OCI-LY8)) (UniProt P10415); assay: co-IP
GST-BCL2 = GST-BCL2 (UniProt P10415); assay: fluorescence polarisation

| Substance | percent of PARP1 displaced from BCL2 by 100 nM ABT-737 [1] | Ki (GST-BCL2) |
| --- | --- | --- |
| poly(ADP) ribose polymerase 1 (PARP1) (from UniProt P09874 1-1014) (enzyme) | 65% | – |
| purified PARP1 (from UniProt P09874 1-1014) (enzyme) | – | 77 nM |
